In the Human Domainome abundance scans (Beltran et al. 2025):
± gives the uncertainty stated by the source.

B1: Chromodomain-helicase-DNA-binding protein 4, residues 444 to 496; numbered along this chain, Q14839 (parent)
chain: EDDHHMEFCRVCKDGGELLCCDTCPSSYHIHCLNPPLPEIPNGEWLCPRCTCP

Variants of: B1
Assay: abundance fitness (aPCA) (normalised: wild type 0, dead -1); higher = more abundant; growth selection in yeast, the domain comes from the species named
Conditions: Homo sapiens

Abundance fitness: each site, then its substitutions
G15: C -0.508 ± 0.082 | W -0.317 ± 0.095 | K 0.08 ± 0.053 | M -0.102 ± 0.055 | Q -0.126 ± 0.06 | N -0.179 ± 0.055 | V -0.115 ± 0.059 | E 0.057 ± 0.058 | S -0.061 ± 0.044 | Y -0.251 ± 0.076 | I -0.397 ± 0.081 | T 0.012 ± 0.057 | P -0.154 ± 0.05 | F -0.263 ± 0.049 | L -0.486 ± 0.064 | D -0.274 ± 0.089
E7: R -0.174 ± 0.069 | P -0.401 ± 0.052 | S -0.364 ± 0.061 | T -0.618 ± 0.073 | W -0.599 ± 0.095 | M -0.433 ± 0.05 | N -0.664 ± 0.065 | Q -0.224 ± 0.074 | I -0.481 ± 0.072 | K -0.492 ± 0.061 | L -0.121 ± 0.042 | V -0.205 ± 0.058 | Y -0.813 ± 0.055
F8: H -0.249 ± 0.043 | N -0.044 ± 0.069 | W -0.041 ± 0.062 | C -0.048 ± 0.059 | I -0.019 ± 0.05 | E 0.138 ± 0.082 | S -0.124 ± 0.045 | R -0.033 ± 0.047 | T -0.091 ± 0.055 | M -0.073 ± 0.063 | G 0.086 ± 0.071 | A -0.103 ± 0.061 | P -0.388 ± 0.045 | L -0.164 ± 0.051 | K -0.103 ± 0.062 | D -0.166 ± 0.06 | V 0.012 ± 0.047
D14: W -0.418 ± 0.063 | N -0.205 ± 0.062 | Y -0.412 ± 0.07 | F -0.34 ± 0.061 | M -0.139 ± 0.054 | I -0.196 ± 0.055 | V -0.089 ± 0.053 | S 0.018 ± 0.047 | H -0.18 ± 0.059 | A -0.068 ± 0.075 | E 0.223 ± 0.076 | R -0.057 ± 0.052 | T -0.1 ± 0.047 | L 0.023 ± 0.04 | P -1.02 ± 0.094 | Q 0.209 ± 0.047 | K 0.074 ± 0.063 | G 0.152 ± 0.073
V11: R 0.012 ± 0.044 | M -0.026 ± 0.061 | A -0.316 ± 0.065 | S -0.159 ± 0.049 | L -0.214 ± 0.048 | I -0.074 ± 0.083 | Q -0.037 ± 0.043 | W -0.209 ± 0.071 | C -0.255 ± 0.067 | N -0.104 ± 0.078 | F -0.359 ± 0.067 | P -0.877 ± 0.07 | Y -0.377 ± 0.073 | T -0.019 ± 0.05 | G -0.135 ± 0.057 | D -0.103 ± 0.069
C12: W -0.822 ± 0.051 | Q -0.928 ± 0.092 | T -0.769 ± 0.045 | R -0.931 ± 0.045 | L -1.11 ± 0.06 | K -0.607 ± 0.07 | V -0.7 ± 0.063 | M -1.19 ± 0.074 | H -0.83 ± 0.074 | G -0.53 ± 0.046 | I -0.73 ± 0.048 | E -0.124 ± 0.1 | N -0.663 ± 0.051 | F -0.896 ± 0.084 | P -1.12 ± 0.052 | S -0.971 ± 0.058 | Y -0.557 ± 0.089 | A -0.74 ± 0.06 | D -0.749 ± 0.1
C9: W -0.844 ± 0.15 | R -0.571 ± 0.066 | A -0.777 ± 0.11 | T -0.815 ± 0.061 | G -0.535 ± 0.094 | I -0.827 ± 0.083 | K -0.54 ± 0.051 | S -0.849 ± 0.068 | Q -0.668 ± 0.07 | E -0.483 ± 0.1 | P -0.797 ± 0.052 | N -0.689 ± 0.054 | D -0.601 ± 0.11 | H -0.79 ± 0.064 | V -0.988 ± 0.11 | M -0.98 ± 0.1 | Y -0.979 ± 0.13
G16: S -0.279 ± 0.053 | M -0.579 ± 0.089 | L -0.7 ± 0.061 | Q -0.559 ± 0.059 | C -0.985 ± 0.19 | A -0.558 ± 0.078 | F -0.556 ± 0.099 | P -1.18 ± 0.084 | N -0.186 ± 0.078 | K -0.143 ± 0.054 | R -0.424 ± 0.073 | E 0.019 ± 0.087 | I -0.74 ± 0.093 | H -0.831 ± 0.055 | D -0.275 ± 0.057
R10: W 0.122 ± 0.088 | C 0.003 ± 0.077 | E -0.07 ± 0.09 | M -0.301 ± 0.074 | A -0.17 ± 0.042 | G -0.349 ± 0.062 | F 0.059 ± 0.043 | I -0.014 ± 0.056 | P -0.274 ± 0.049 | H -0.137 ± 0.051 | L -0.021 ± 0.043 | T 0.028 ± 0.061 | V -0.056 ± 0.058 | Q 0.086 ± 0.066 | N 0.003 ± 0.044 | K 0.124 ± 0.045 | Y -0.009 ± 0.064 | D -0.142 ± 0.087
K13: L -0.129 ± 0.042 | D -0.243 ± 0.059 | W -0.139 ± 0.054 | Y -0.375 ± 0.065 | E 0.214 ± 0.061 | H -0.286 ± 0.046 | T -0.134 ± 0.041 | S -0.101 ± 0.049 | A 0.085 ± 0.046 | P -1.08 ± 0.068 | C -0.126 ± 0.054 | G -0.01 ± 0.057 | V -0.303 ± 0.046 | M -0.2 ± 0.055 | Q -0.024 ± 0.043 | N -0.199 ± 0.045 | R -0.087 ± 0.041 | F -0.267 ± 0.054
